Experimental data: patent publication US20150099282A1, “NADP-DEPENDENT ALANINE DEHYDROGENASE” (EVONIK INDUSTRIES AG, priority 2012, published 2015)

B1: Bacillus subtilis alanine dehydrogenase (BasAlaDH), wild type (N-terminal His6-tag) (Bacillus subtilis subsp. subtilis str. 168) (protein)
chain: MIIGVPKEIKNNENRVALTPGGVSQLISNGHRVLVETGAGLGSGFENEAYESAGAEIIADPKQVWDAEMVMKVKEPLPEEYVYFRKGLVLFTYLHLAAEPELAQALKDKGVTAIAYETVSEGRTLPLLTPMSEVAGRMAAQIGAQFLEKPKGGKGILLAGVPGVSRGKVTIIGGGVVGTNAAKMAVGLGADVTIIDLNADRLRQLDDIFGHQIKTLISNPVNIADAVAEADLLICAVLIPGAKAPTLVTEEMVKQMKPGSVIVDVAIDQGGIVETVDHITTHDQPTYEKHGVVHYAVANMPGAVPRTSTIALTNVTVPYALQIANKGAVKALADNTALRAGLNTANGHVTYEAVARDLGYEYVPAEKALQDESSVAGA
B2: Bacillus subtilis alanine dehydrogenase (BasAlaDH) variant D196A/L197R (Asp196Ala, Leu197Arg), SEQ ID No. 1 (with His-Tag: SEQ ID No. 22) (Bacillus subtilis … (protein)
chain: MASRGSHHHHHHGAIIGVPKEIKNNENRVALTPGGVSQLISNGHRVLVETGAGLGSGFENEAYESAGAEIIADPKQVWDAEMVMKVKEPLPEEYVYFRKGLVLFTYLHLAAEPELAQALKDKGVTAIAYETVSEGRTLPLLTPMSEVAGRMAAQIGAQFLEKPKGGKGILLAGVPGVSRGKVTIIGGGVVGTNAAKMAVGLGADVTIIARNADRLRQLDDIFGHQIKTLISNPVNIADAVAEADLLICAVLIPGAKAPTLVTEEMVKQMKPGSVIVDVAIDQGGIVETVDHITTHDQPTYEKHGVVHYAVANMPGAVPRTSTIALTNVTVPYALQIANKGAVKALADNTALRAGLNTANGHVTYEAVARDLGYEYVPAEKALQDESSVAGA

Legend:
Type in all cases: biochemical, Bacillus subtilis
[1] = substrate: NC(=O)C1=CN([C@@H]2O[C@H](COP(=O)(O)OP(=O)(O)OC[C@H]3O[C@@H](n4cnc5c(N)ncnc54)[C@H](O)[C@@H]3O)[C@@H](O)[C@H]2O)C=CC1; experiment: KM and kcat for NADH/NADPH, reductive amination of pyruvate, wild type BasAlaDH; conditions: other: reductive amination of pyruvate, 5 mM pyruvate, 200 mM ammonium acetate, 10-500 μM NADH, 0.5 μM enzyme, Hepes/NaOH pH 8.3, 30.0 °C
Excerpt: (§1) The gene of the Bacillus subtilis AlaDH (SEQ ID No. 4) was amplified from the plasmid pUC18-AlaDH by polymerase chain reaction (PCR) using the oligodeoxy nucleotides AlaDHfw (SEQ ID No. 11) and AlaDHrv (SEQ ID No. 12), cleaved at the 3′ end using the restriction enzyme KpnI and ligated with the expression vector pASK-IBA35(+) (IBA GmbH, Göttingen) which had been cleaved with the restriction enzymes EheI and KpnI. The resulting expression plasmid pASK-IBA35(+)-AlaDH on which the BasAlaDH with an N-terminal His6-tag is encoded was verified by means of analytical restriction digestion and DNA sequencing. The plasmid which codes for the enzyme variant D196A/L197R was generated by site-directed mutagenesis using the oligodeoxy nucleotides AlaDH_D196A/L197Rfw (SEQ ID No. 13) and AlaDH_D196A/L197Rrv (SEQ ID No. 14), using the QuikChange method. The resulting expression plasmid pASK-IBA35(+)-AlaDH(D196A/L197R) was verified by means of DNA sequencing.
(§2) The expression plasmids for the BasAlaDH and its variant D196A/L197R were subsequently used for transforming E. coli BL21 (Sambrook et al. (2001) Molecular cloning: a laboratory manual, 3rd edition. Cold Spring Harbor Laboratory Press). Gene expression was induced in each case in LB medium (Sambrook et al. 2001) supplemented with 100 μg/ml ampicillin (2 L culture volume in a 5-l shake flask) at 30° C. in the exponential growth phase at OD550=0.5 by addition of 0.2 μg/ml anhydrotetracyclin (aTc; Acros, Geel, Belgium). After an induction time of 3 hours, the culture was harvested, and the cells were taken up in 40 mM Hepes/NaOH pH 7.5, 0.5 M NaCl and disrupted mechanically in a French press homogenizer (G. Heinemann, Schwäbisch Gmünd). The clear supernatant was applied to a Chelating Sepharose™ Fast Flow column loaded with Zn^2+ (bed volume 2.8 ml; GE Healthcare, Munich), and the enzymes with His6-tag fusion were eluted using a linear imidazole/HCl concentration gradient of from 0 to 500 mM in 40 mM Hepes/NaOH pH 7.5, 0.5 M NaCl. The elution fractions were concentrated by ultrafiltration and purified chromatographically by means of gel filtration on Superdex200 (GE Healthcare) in the presence of 25 mM Hepes/NaOH pH 8.3.
(§3) The Michaelis constant (KM) and the turnover number (kcat) of the two purified enzymes for the cosubstrates NADH and NADPH were determined with the aid of reductive amination of pyruvate, and the catalytic efficiency (kcat/KM) was calculated (Table 1).

[2] = substrate: NC(=O)C1=CN([C@@H]2O[C@H](COP(=O)(O)OP(=O)(O)OC[C@H]3O[C@@H](n4cnc5c(N)ncnc54)[C@H](OP(=O)(O)O)[C@@H]3O)[C@@H](O)[C@H]2O)C=CC1; experiment: as above; conditions: other: reductive amination of pyruvate, 5 mM pyruvate, 200 mM ammonium acetate, 10-500 μM NADPH, 0.5 μM enzyme, Hepes/NaOH pH 8.3, 30.0 °C
Excerpt: as §1, §2, §3

[3] = substrate: NC(=O)C1=CN([C@@H]2O[C@H](COP(=O)(O)OP(=O)(O)OC[C@H]3O[C@@H](n4cnc5c(N)ncnc54)[C@H](O)[C@@H]3O)[C@@H](O)[C@H]2O)C=CC1; experiment: KM and kcat for NADH/NADPH, reductive amination of pyruvate, BasAlaDH mutant D196A/L197R; conditions: other: reductive amination of pyruvate, 5 mM pyruvate, 200 mM ammonium acetate, 10-500 μM NADH, 0.5 μM enzyme, Hepes/NaOH pH 8.3, 30.0 °C
Excerpt: (§4) The conserved aspartate residue was the starting point for constructing the BasAlaDH enzyme variants D196A/L197R, with the SheAlaDH structure being used as template. […] As a result of the substitution L197R, the new cosubstrate specificity is favoured further as the result of the formation of salt bridges between the introduced arginine residue and the NADPH phosphate group.
as §1, §2, §3

[4] = substrate: NC(=O)C1=CN([C@@H]2O[C@H](COP(=O)(O)OP(=O)(O)OC[C@H]3O[C@@H](n4cnc5c(N)ncnc54)[C@H](OP(=O)(O)O)[C@@H]3O)[C@@H](O)[C@H]2O)C=CC1; experiment: as above; conditions: other: reductive amination of pyruvate, 5 mM pyruvate, 200 mM ammonium acetate, 10-500 μM NADPH, 0.5 μM enzyme, Hepes/NaOH pH 8.3, 30.0 °C
Excerpt: as §4, §1, §2, §3

Row | Protein | Km [1] [µM] | kcat [1] [s⁻¹] | kcat/Km [1] [μM^−1/min^−1] | Km [2] [µM] | kcat [2] [s⁻¹] | kcat/Km [2] [μM^−1/min^−1] | Km [3] [µM] | kcat [3] [s⁻¹] | kcat/Km [3] [μM^−1/min^−1] | Km [4] [µM] | kcat [4] [s⁻¹] | kcat/Km [4] [μM^−1/min^−1]
1 | B1 | 14 ± 2 | 14 ± 0.35 | 59.9 | 448 ± 135 | 11.1 ± 1.9 | 1.5 |  |  |  |  |  | 
2 | B2 |  |  |  |  |  |  | 887 ± 360 | 44.48 ± 12 | 3.0 | 32 ± 3 | 28.83 ± 0.65 | 54.1
